# Assay results as given in the supplement of paper PMC12042874.
# ± gives the uncertainty stated by the source.
# Assay: amyloid nucleation score (Sup35N fusion, yeast selection) (log enrichment); library NNK1; higher = more nucleation; inactive = no reads after selection
# How it was run: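 Sup35N fusions to peptides of 20 random codons were expressed in psi-negative yeast, induced 24 hours with 100 μM copper sulfate, and grown 7 days at 30°C on medium lacking adenine and uracil. Input and output plasmid inserts were sequenced by Illumina. The nucleation score is the DiMSum log enrichment of output over input reads, centred on the mode score of non-aggregating sequences. Sequences with under 100 input reads were excluded.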
row,Substance,amyloid nucleation score
1,VGNVRPVFDTALTTWRRCCF,0.223 ± 0.49
2,VGRLGKFRGFSIGNYECSI,0.726 ± 0.55
3,VGSGSDQQYALMSNLYSKLS,1.02 ± 0.7
4,VGSTKSDVTDFLDCMNGLEW,0.462 ± 0.63
5,VGVVCLKFLP,-0.064 ± 0.43
6,VHSCIYVSKTSLELARYQML,inactive
7,VHSWQVVRYFRFLVLYSWDR,0.539 ± 0.42
8,VIDAIQPRKYGFV,-0.462 ± 0.58
9,VIGDLSYRSYI,0.44 ± 0.4
10,VIGSMVGLI,0.668 ± 0.31
11,VIHLSVSWLGMLSGWANLFV,-0.529 ± 0.94
12,VIIAEVDVVA,-0.186 ± 0.57
13,VIIKTRLELYKWRTMISSND,-0.454 ± 0.63
14,VIILNVVFNLLYEKAFFFR,0.278 ± 0.68
15,VILSARSFMTIHGHYCTYRV,0.474 ± 0.88
16,VILSCSLLFCFNRSWGLGNE,7.04 ± 0.067
17,VIMCNI,0.068 ± 0.93
18,VINWLCWVYLECLWYYWMVG,inactive
19,VIQRYRSVPI,0.604 ± 0.67
20,VISRSVDYTPM,-0.599 ± 0.46
21,VITNVRL,-0.089 ± 0.35
22,VIVSSWLLTCTYSRYMRY,-1.5 ± 2.7
23,VKIKEKFKA,-0.189 ± 0.42
24,VKKRGDQLSLCWCLPRDLLL,0.612 ± 0.59
25,VKLSMLWLMARLWGRLTCSG,-0.293 ± 0.47

row,Substance,amyloid nucleation score
1,VKLSYGWVLSGAELTEYVTM,-0.782 ± 0.54
2,VKNRNKGTYRCWVVYITGKS,-0.205 ± 0.28
3,VKRKGAKISWQGAILRASVV,-0.963 ± 0.7
4,VKSWKLERRMRVAMLDTLVI,0.367 ± 1.2
5,VKSWVPTDVGFEQQSGREVL,0.093 ± 0.25
6,VLAPF,inactive
7,VLAPFVLPC,-0.406 ± 0.41
8,VLAVCKVYASWYFTFWMF,4 ± 0.088
9,VLAVLVFSGCGGVRGTSNLT,1.54 ± 0.14
10,VLCGNPLFRFVLGWRFCVWG,0.335 ± 1.1
11,VLCSRIYDHAWAKG,inactive
12,VLCVSRRSAIYTWGSSLYCD,-0.691 ± 1.4
13,VLDEYFCNLC,5.989 ± 0.058
14,VLEYKD,-1.97 ± 2.4
15,VLFFKVIIYVALRMVLMEKD,-1.18 ± 1
16,VLFGS,-0.462 ± 0.93
17,VLGDLVRFRAYASRAIMLSL,-0.11 ± 0.79
18,VLIDMSGSCSKAMHAIRQDR,0.218 ± 0.73
19,VLKLLVVRFVPLPSSFYTCE,0.193 ± 0.92
20,VLKVCTWIKYLQSV,-0.279 ± 0.33
21,VLLFNHYFLRAAVIIAWVGW,-0.618 ± 1.6
22,VLLIRYYFMKFDLSL,0.359 ± 0.47
23,VLMCDGFHALRKL,1.97 ± 0.36
24,VLNFEGMSRAVFLRLISIQQ,-0.837 ± 0.9
25,VLNNLDLCSIRIVSKVSLFM,6.88 ± 0.085

row,Substance,amyloid nucleation score
1,VLRCVISLQV,inactive
2,VLRIDSPLSMILFEVVRCEQ,-0.322 ± 0.31
3,VLSKFIVSDLMAISQNKLHR,inactive
4,VLTKWGIWGGQWCTVLSRGR,0.211 ± 0.37
5,VLTVRLTMLDCHLAAFSSNA,1.66 ± 0.16
6,VLTWFDCYLICLYTRTSLRI,0.365 ± 0.41
7,VLVDGSRSWGG,0.952 ± 0.52
8,VLVDKSDRVRGLS,-0.101 ± 0.3
9,VLVFIFDSTVSI,8.236 ± 0.046
10,VLYAP,-0.33 ± 1.7
11,VLYELSKMGYRVLLYTHPDR,0.125 ± 0.46
12,VMAGHFCYWCRCRVARQLSW,-0.69 ± 0.77
13,VMFRLTGELGDMKCGVLSDA,1.47 ± 0.38
14,VMGLT,-0.242 ± 1.1
15,VMGSGLRMGLAESCVENGAS,-0.021 ± 0.31
16,VMLFSDVFWALMLHFYDPAF,-1.01 ± 0.61
17,VMMYLFYFHTRMCMSHLCYA,-0.891 ± 1.6
18,VMPYYRRSQNHDSFNFGDVS,0.552 ± 0.52
19,VMSFILYLSMLCGARDSQRH,2.89 ± 0.14
20,VMTFLISLSWYSL,0.328 ± 0.23
21,VMWRFKSVTCI,-0.393 ± 0.33
22,VNCFSTLSMLWMSVQTEPRV,1.04 ± 0.28
23,VNCGSYVDLDVGVIGPR,0.255 ± 0.84
24,VNIKLLVVRAVFVILKDMGK,2.16 ± 0.12
25,VNLGVRAGGLCRHAEKGDMT,-0.364 ± 0.53

row,Substance,amyloid nucleation score
1,VNLHWGSDEAVSIARDIYTW,0.533 ± 0.29
2,VNMSKHYRRGWGDDVATGVR,0.693 ± 0.49
3,VNPNGGEDNVLGCPIRSWQW,-0.031 ± 1.2
4,VNSFCR,0.587 ± 1.1
5,VNSIESCANFH,-0.198 ± 1.7
6,VNSRCLSAYTK,0.46 ± 0.34
7,VNVNNLRRTYNIRWVVGPGL,5.57 ± 0.064
8,VNWIVVVFTNMLFLTKGRNA,0.308 ± 0.27
9,VNYTTSQSRRDFPSNRSQSG,0.715 ± 0.83
10,VPLVVNRDARH,1.26 ± 0.59
11,VPSNLQGSPFPQLGMSALVH,0.149 ± 0.62
12,VPTMEMTVAYGSWTCSERCE,-0.468 ± 0.44
13,VPWLKGAVDPVTRFGV,-0.016 ± 0.78
14,VQRCWYGR,-1.94 ± 2.7
15,VRAELFLTLPKGTQADALAV,-0.166 ± 0.67
16,VRALND,-0.581 ± 0.3
17,VRCVICCFCIWLKAWWDYKR,1.47 ± 0.45
18,VRDGDTMILGVYRNIWGTNV,0.429 ± 0.24
19,VRFSVLKVTVLTKARNEVST,1.7 ± 0.24
20,VRGSVGANGQHVPEDMTVRM,0.786 ± 0.44
21,VRIAPHKGPDRTSGVLLGRM,0.838 ± 0.75
22,VRKISIFFMNSWVWLSSRFH,0.069 ± 0.49
23,VRKSSVASLECQNA,0.335 ± 0.28
24,VRLGMRQMCYQKNRTCQVYF,-0.173 ± 0.62
25,VRLVVQWEKVKDCLIVWD,1.85 ± 0.12

row,Substance,amyloid nucleation score
1,VRMGQDRHIISTKLTVSREL,-1.22 ± 2.7
2,VRNDLNTH,0.377 ± 0.19
3,VRNDQRLLCRRFVKFSDFQS,-0.62 ± 0.95
4,VRNWCVGSTVARRYHWMTCP,0.413 ± 0.58
5,VRPMSDNSRVCVKSDNRSTG,-1.14 ± 0.93
6,VRSGRSDATAAKYFLHLTWY,-0.465 ± 0.89
7,VRSLARNG,0.947 ± 0.7
8,VRSPNIEYDFCRVLPTLTGE,0.505 ± 1.4
9,VRVQTRHLGDGLPHGQDKCY,-0.403 ± 0.52
10,VRVVSTSRILFHGFFRNNKG,0.567 ± 0.33
11,VRYVNRLKAHALDPKLKTL,-0.18 ± 0.62
12,VSALAVRARWAINTLARDRR,0.9 ± 0.66
13,VSCCNSQTSQLMDFGNKVSP,0.349 ± 0.25
14,VSCQHTVFKVICSYLPHLCK,0.666 ± 0.59
15,VSFRTLYGRI,-0.187 ± 0.27
16,VSHIAPRWPLSRTIRETQRM,0.479 ± 1.2
17,VSHSGCKSF,-0.434 ± 0.47
18,VSIGILLFILPSRTGCVCLM,0.087 ± 0.66
19,VSKGLEHRPHVWG,5.35 ± 0.064
20,VSLLKGRVAMSRG,1.1 ± 0.38
21,VSLVMWVYCGDDWLSFAIRA,-0.211 ± 0.38
22,VSMHNLMQRFSGFMYQCFAG,1.55 ± 0.2
23,VSNFIGVFVAVSWRYDDLCF,0.324 ± 1.2
24,VSNRTVNDGYGSSGAALCLR,0.099 ± 0.44
25,VSRLRSDWNL,1.43 ± 0.3

row,Substance,amyloid nucleation score
1,VSVSNISSVLTLSGKMLIST,-0.031 ± 0.39
2,VSWECSIVNAYMQPATCDII,4.88 ± 0.1
3,VSWHGSVLHRACMKWVCMCG,0.51 ± 0.79
4,VSYLEGVRWLCIIYTGNRSW,inactive
5,VTCRLPETMPGGTWLNMIIR,inactive
6,VTFLIMGWLRDRRV,-0.563 ± 0.39
7,VTFWDPVVLTTPPKLCI,-0.946 ± 0.49
8,VTHNSTAHE,1.09 ± 0.75
9,VTNTSLFSIAKSLGHHHEGR,0.272 ± 0.4
10,VTPGRLQRLVM,-1.39 ± 0.58
11,VTRFRYECRSGHRKHPGGMD,inactive
12,VTVEIAWKMA,0.054 ± 0.67
13,VTYDKAQG,0.051 ± 0.68
14,VVAGNSAKEIYKFTGADTPY,-0.751 ± 0.57
15,VVCNCGHGIKNIC,-1.08 ± 1.6
16,VVDEKREVRSLANVNTASSL,0.1 ± 0.28
17,VVDLVHVCSFFTFYVCATLL,1.66 ± 0.6
18,VVDSTFWEVIHRRWASAMLD,-0.657 ± 0.68
19,VVESGVFWDSSYNFKGDTVW,0.532 ± 0.92
20,VVGRGKLQCVLFRHDTAYRV,-0.058 ± 0.28
21,VVISMTTMKVFMLVYTMDFM,0.046 ± 0.21
22,VVKLRHYAEKICGSETELG,0.003 ± 0.51
23,VVLQTTPSAYSIMVHLWYYS,0.472 ± 0.46
24,VVLSIYTNITSCCDLLTSRR,6.787 ± 0.047
25,VVNSSS,0.537 ± 0.85

row,Substance,amyloid nucleation score
1,VVRWSFDNAYSSSLDNLIVI,-0.209 ± 0.34
2,VVSLNE,0.915 ± 0.9
3,VVSTPHSN,-0.099 ± 0.85
4,VVTRYL,0.403 ± 0.36
5,VVTVLGVGLDSSSSGWWFVA,0.168 ± 0.46
6,VVVVKLQVQCDGESMSACLG,-0.495 ± 1.5
7,VVWYLMVFWPCDSLSPMSRS,0.559 ± 0.4
8,VWCRFERDTISKLCASWGRR,-0.237 ± 1.9
9,VWENQLVWMVWWWEGTGS,0.527 ± 0.49
10,VWEQLIAE,-0.26 ± 0.84
11,VWIDLSMCIYMLEPLNSLFR,1.95 ± 0.19
12,VWKDS,-0.285 ± 0.65
13,VWMRVKIGGVWC,1.58 ± 0.47
14,VWNNKECANFDNIWATLLIV,inactive
15,VWVKSHLY,-0.537 ± 0.25
16,VYAMGIHWRFCAKKRIMSG,-0.802 ± 1.7
17,VYAQMALLR,-0.164 ± 0.62
18,VYCCTYVQINVGVERSTEIR,7.044 ± 0.05
19,VYCVCYLWLKVVHKSLDTLS,2.23 ± 0.079
20,VYIVCYFLHTGSFGWTCCVE,inactive
21,VYKTRVYVDCYEILDGSKEM,0.491 ± 0.45
22,VYRLEVIARK,1.69 ± 0.33
